Results as given in US20130078237A1 (Amgen, published 2013).

Assays:
[1] = biological target: T1, human CD27L on the surface of cells (human, UniProt P32970 1-193); assay: binding to cells with native human CD27L (column 'Native cell Avidity EC50 nM'); cell line and method not stated for the figure
T1 construct: native on Raji and 786-0 cells, recombinant on 293 cells; also called CD70; TNFSF7
T1 sequence: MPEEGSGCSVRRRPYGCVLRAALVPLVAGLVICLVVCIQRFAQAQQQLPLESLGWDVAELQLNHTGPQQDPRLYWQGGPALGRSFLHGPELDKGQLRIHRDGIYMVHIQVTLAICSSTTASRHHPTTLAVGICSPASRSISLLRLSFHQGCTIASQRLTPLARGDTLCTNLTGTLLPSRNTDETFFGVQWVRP

[2] = biological target: T2, Histidine-tagged human soluble CD27L (human, UniProt P32970 39-193); assay: BIACORE 3000, antibody captured by goat anti-human IgG on a CM5 chip, Hu CD27L-his as analyte (column 'Affinity Hu Biacore KD nM')
T2 construct: also called Hu CD27L-his; soluble human CD27L-his; not shown: histidine tag
T2 sequence: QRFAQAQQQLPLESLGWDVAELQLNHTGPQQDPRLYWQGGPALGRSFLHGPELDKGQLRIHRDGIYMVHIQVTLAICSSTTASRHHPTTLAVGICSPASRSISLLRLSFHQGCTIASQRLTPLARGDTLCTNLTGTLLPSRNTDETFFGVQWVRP

cynomolgus monkey CD27L = biological target: T3, cynomolgus monkey CD27L (cynomolgus monkey, UniProt A0A2K5WTU9 39-190); assay: binding to cynomolgus CD27L (column 'Cyno Avidity EC50 nM'); method not stated for the figure
T3 construct: also called cynomolgus CD27L
T3 sequence: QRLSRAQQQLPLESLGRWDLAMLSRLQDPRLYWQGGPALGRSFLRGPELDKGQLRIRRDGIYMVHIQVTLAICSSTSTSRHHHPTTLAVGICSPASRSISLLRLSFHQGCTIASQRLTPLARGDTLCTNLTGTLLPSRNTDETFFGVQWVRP

[3] = biological target: T1, human CD27L on the surface of cells; assay: flow cytometry (FACS) on 786-0 cells
[4] = biological target: T1, human CD27L on the surface of cells; assay: Gyros, native human CD27L on Raji cells
[5] = biological target: T1, human CD27L on the surface of cells; assay: cell-based or functional assay
[6] = biological target: T1, human CD27L on the surface of cells; assay: cell-based or functional assay; remark: listed apart in the source
[7] = biological target: T1, human CD27L on the surface of cells; assay: cell-based or functional assay; remark: listed apart in the source
[8] = biological target: T4, CD27L bound to Maxisorp plates (Homo sapiens (Human), UniProt P32970 39-193, limits assumed); assay: ELISA on plate-bound CD27L; abolished = no curve could be generated or max signal less than 5%
T4 sequence: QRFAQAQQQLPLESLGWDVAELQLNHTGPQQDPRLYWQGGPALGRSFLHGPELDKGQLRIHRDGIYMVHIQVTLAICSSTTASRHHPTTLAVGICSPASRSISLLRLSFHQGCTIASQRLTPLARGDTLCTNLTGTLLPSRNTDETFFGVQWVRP
Method: CD27L was bound to Maxisorp plates at room temperature for >2 hours, shaking with lug/mL in 100 uL. The plates were then blocked with 250 uL 10% Non-fat dry milk in PBS+0.05% Tween 20 for 2 hours. After a 4×300 uL PBS+0.05% Tween20 (PBST) wash the modified Ab and purified parental control titrations ranging from 0.045 to 100 ng/mL were applied to the plates and incubated for 1 hour. A horseradish peroxidase conjugated αhuFc detection antibody (Jackson) diluted 1:7000 was applied to the plates after another PBST wash, and incubated for 1 hour. A final wash was performed and TMB substrate was incubated for 10 minutes and stopped with phosphoric acid. An OD reading at 450 nm was taken and plotted vs. concentration. These curves were then analyzed with a 3 parameter non linear curve fit and the EC₅₀ and Max calculated signal were compared to the purified control. Binding was determined to be similar to parental if the EC₅₀ was within 2 fold and the Max signal was greater than 50%. The binding was reduced if the EC₅₀ increased greater than 2 fold and/or the max signal was less than 50%. The binding was abolished if no curve could be generated or the max signal was less than 5%.

B1: Ab1 (antibody, human IgG1, kappa, V domains shown)
VH: QMQLQESGPGLVKPSQTLSLTCTVSDGSIISGVYYWSWIRQHPGKGLEWIGYIYYSGSTSYNPSLKSRLTMSVDTSKNQFSLKLSSVTAADTAVYYCARSGYSYALFDYWGQGTLVTVSS
VL: DIQMTQSPSSLSASLGDRVTITCRASQSVDRYFNWYQQKPGKAPKVLIFAASSLQSGVPSRFGGSGSGTDFTLTISSLQPEDFATYYCQQSYSTPWTFGQGTKVEVKR
notes: Fully human IgG1 from XenoMouse hybridoma
B1 gave an EC50 [1] of 320 pM and a Kd [2] of 620 pM.

B2: Ab2 (antibody, human IgG1, kappa, V domains shown)
VH: QVQLQESGPGLVKPSQTLSLTCTVSGDSIISGGYYWSWIRQHPGKGLEWIGYIFYSGSTDYNPSLKSRVTISVDTSKNQFSLKLSSVTAADTAVYYCARSGYSYALFDHWGQGTLVTVSS
VL: DIQMTQSPSSLSASVGDRVTISCRASQFIGRYFNWYQQQPGKAPKVLIYAESSLQSGVPSRFSGSGSGTEFTLTISSLQPEDFARYYCQQSYSTPWTFGQGTKVEIKR
notes: as for B1
B2 was tested, and the EC50 [1] was 240 pM and the Kd [2] was 590 pM.

B3: Ab6 (antibody, human IgG1, lambda, V domains shown)
VH: QVQLVQSGAEVKKPGASVKVSCKASGYTFTSYGISWVRQAPGQGLEWMGWISAYNGYTHYAQKLQGRVTMTTDTSTSTAYMELRSLRSDDTAVYYCARDYGGNDYYGMDVWGQGTTVTVSS
VL: QSVLTQPPSASGTPGQRVTISCSGSSSNIGINYVYWYQQLPGTAPKLLIYRSDQRPSGVPDRFSGSKSGTSASLALSGLRSEDEADYYCAAWDDSLSGVVFGGGTKLTVLG
notes: as for B1
With B3 the EC50 (cynomolgus monkey CD27L) was 870 pM, the EC50 [1] was 870 pM and the Kd [2] was 6060 pM.

B4: Ab3 (antibody, IgG1, V domains shown)
VH: EVQLLESGGGLVQPGGSLRLSCAASGFTFSSYAMSWVRQAPGKGLEWVSVISDSGGTTDYADSVKGRFTISRDNSKNTLYLQMNSLRAEDTAVYYCARHDYSNRYYFDYWGQGTLVTVSS
VL: EIVLTQSPGTLSLSPGERATLSCRASQSFSSNYLAWYQQKPGQAPRLFIYGASSRATGIPDRFSGSGSGTDFTLTISRLEPEDFAVYFCQQYGISPCSFGQGTKLEIK
notes: Tested as hybridoma supernatant
For B4, the EC50 [1] was 4180 pM and the Kd [2] was 4350 pM.

B5: Ab8 (antibody, human IgG1, kappa, V domains shown)
VH: QVQLVESGGGVVQPGRSLRLSCAASGFTFSSYGMHWVRQAPGKGLEWVAVIWYDGSDKYFADSVKGRFTISRDNSKNTLYLQMNSLRAEDTAVYYCARDGIAGARYVYFDYWGQGTLVTVSS
VL: DIQMTQSPSSLSASVGDRVTITCRASQGISNYLAWFQQKPGKAPKSLIYAASSLQGGVPSKFSGSGSGTDFTLTISSLQPEDFATYYCQQYYNYPFTFGPGTTVDIKR
notes: also called A8; unconjugated Ab8
B5 gave an EC50 [3] of 20 pM, a Kd [4] of 78 pM and an EC50 (cynomolgus monkey CD27L) of 340 pM. The EC50 [1] was 90 pM and the Kd [2] was 10800 pM.

B6: Ab5 (antibody, human IgG1, kappa, V domains shown)
VH: QVQLVQSGAEVKKPGASVKVSCKASGYTFTSYDINWVRQATGQGLEWMGWMNPNSGNTGYAQKFQGRVTMTRNTSISTAYMELSSLRSEDTAVYYCARGYDFWSGYYYYYYGMDVWGQGTTVTVSS
VL: EIVLTQSPGTLSLSPGERATLSCRASQSVSSSYLAWYQQRPGQAPRLLIYGASSRATGIPDRFSGSGSGTDFTLTISSLEPEDFAVYYCLQSGSSVPLTFGGGTKVEIKR
notes: as for B1
B6 was tested, and the EC50 (cynomolgus monkey CD27L) was 1400 pM, the EC50 [1] was 660 pM and the Kd [2] was 10400 pM.

B7: Ab4-MCC-DM1 (antibody, human IgG1, kappa, V domains shown)
VH: QVQLVESGGGVVQPGRSLRLSCAASGFTFSNYGIHWVRQAPGKGLEWVAVIWYDGSNKYYADSVKGRFTISRDNSKNTLYLQMNSLRAEDTAVYYCARDGGYSGYDSGFDYWGQGTLVTVSS
VL: DIVMTQSPLSLPVTPGEPASISCRSSQSLLNSNGYNYLDWYLQKPGQSPQFLIYLGSYRASGVPDRFSGSGSGTDFTLRISRVEAEDVGVYYCIQTLQTPFTFGPGTKVDIKR
modifications: DM1 linked through MCC (SMCC) to lysine residues; 4.5-5.0 DM1 molecules per antibody on average, sites not given
notes: also called Ab4 antibody drug conjugate; conjugated Ab4
For B7, the “ADCC against Raji cells, EC50 (calcein release, NK effectors)” value [5] was 6 ng/mL, the “786-0-IC50, Antibody Conc. (nM); cell growth inhibition, CellTiter-Glo, 4 days” value [6] was 0.07 nM and the “786-0-IC50, Drug Conc. (nM); cell growth inhibition, CellTiter-Glo, 4 days” value [6] was 0.34 nM. For the same binder, the “ADCP, 786-0 EC50 (pM)” value [7] was 0.087 pM, the “ADCP, Raji EC50 (pM)” value [7] was 1.42 pM and the EC50 [3] was 100 pM. For the same binder, the Kd [4] was 23 pM.

B8: Ab4 (antibody, human IgG1, kappa, V domains shown)
VH: QVQLVESGGGVVQPGRSLRLSCAASGFTFSNYGIHWVRQAPGKGLEWVAVIWYDGSNKYYADSVKGRFTISRDNSKNTLYLQMNSLRAEDTAVYYCARDGGYSGYDSGFDYWGQGTLVTVSS
VL: DIVMTQSPLSLPVTPGEPASISCRSSQSLLNSNGYNYLDWYLQKPGQSPQFLIYLGSYRASGVPDRFSGSGSGTDFTLRISRVEAEDVGVYYCIQTLQTPFTFGPGTKVDIKR
notes: Fully human IgG1; also called A4; unconjugated parental Ab4
For B8, the “ADCC against Raji cells, EC50 (calcein release, NK effectors)” value [5] was 10 ng/mL, the “ADCP, 786-0 EC50 (pM)” value [7] was 0.008 pM and the “ADCP, Raji EC50 (pM)” value [7] was 0.008 pM. For the same binder, the EC50 [3] was 100 pM, the Kd [4] was 14 pM and the EC50 (cynomolgus monkey CD27L) was 480 pM. The EC50 [1] was 250 pM and the Kd [2] was 3050 pM.

B9: Ab4 variant Parent LC + S103G-G104S (antibody, V domains shown)
VH: QVQLVESGGGVVQPGRSLRLSCAASGFTFSNYGIHWVRQAPGKGLEWVAVIWYDGSNKYYADSVKGRFTISRDNSKNTLYLQMNSLRAEDTAVYYCARDGGYGSYDSGFDYWGQGTLVTVSS
VL: DIVMTQSPLSLPVTPGEPASISCRSSQSLLNSNGYNYLDWYLQKPGQSPQFLIYLGSYRASGVPDRFSGSGSGTDFTLRISRVEAEDVGVYYCIQTLQTPFTFGPGTKVDIK
notes: Rest as Ab4 (IgG1)
B9: no binding [8].

B10: Ab4 variant Parent LC + G33S-I34L (antibody, V domains shown)
VH: QVQLVESGGGVVQPGRSLRLSCAASGFTFSNYSLHWVRQAPGKGLEWVAVIWYDGSNKYYADSVKGRFTISRDNSKNTLYLQMNSLRAEDTAVYYCARDGGYSGYDSGFDYWGQGTLVTVSS
VL: DIVMTQSPLSLPVTPGEPASISCRSSQSLLNSNGYNYLDWYLQKPGQSPQFLIYLGSYRASGVPDRFSGSGSGTDFTLRISRVEAEDVGVYYCIQTLQTPFTFGPGTKVDIK
notes: Rest as Ab4 (IgG1)
B10: no binding [8].

B11: Ab4 variant Q95N-T96S + G33S-I34L (antibody, V domains shown)
VH: QVQLVESGGGVVQPGRSLRLSCAASGFTFSNYSLHWVRQAPGKGLEWVAVIWYDGSNKYYADSVKGRFTISRDNSKNTLYLQMNSLRAEDTAVYYCARDGGYSGYDSGFDYWGQGTLVTVSS
VL: DIVMTQSPLSLPVTPGEPASISCRSSQSLLNSNGYNYLDWYLQKPGQSPQFLIYLGSYRASGVPDRFSGSGSGTDFTLRISRVEAEDVGVYYCINSLQTPFTFGPGTKVDIK
notes: Rest as Ab4 (IgG1)
B11: no binding [8].

B12: Ab4 variant L55I-Y58F + G33S-I34L (antibody, V domains shown)
VH: QVQLVESGGGVVQPGRSLRLSCAASGFTFSNYSLHWVRQAPGKGLEWVAVIWYDGSNKYYADSVKGRFTISRDNSKNTLYLQMNSLRAEDTAVYYCARDGGYSGYDSGFDYWGQGTLVTVSS
VL: DIVMTQSPLSLPVTPGEPASISCRSSQSLLNSNGYNYLDWYLQKPGQSPQFLIYIGSFRASGVPDRFSGSGSGTDFTLRISRVEAEDVGVYYCIQTLQTPFTFGPGTKVDIK
notes: Rest as Ab4 (IgG1)
B12: no binding [8].

B13: Ab4 variant Q95N-T96S + S103G-G104S (antibody, V domains shown)
VH: QVQLVESGGGVVQPGRSLRLSCAASGFTFSNYGIHWVRQAPGKGLEWVAVIWYDGSNKYYADSVKGRFTISRDNSKNTLYLQMNSLRAEDTAVYYCARDGGYGSYDSGFDYWGQGTLVTVSS
VL: DIVMTQSPLSLPVTPGEPASISCRSSQSLLNSNGYNYLDWYLQKPGQSPQFLIYLGSYRASGVPDRFSGSGSGTDFTLRISRVEAEDVGVYYCINSLQTPFTFGPGTKVDIK
notes: Rest as Ab4 (IgG1)
B13: no binding [8].

B14: Ab4 variant R24K-S26G + G33S-I34L (antibody, V domains shown)
VH: QVQLVESGGGVVQPGRSLRLSCAASGFTFSNYSLHWVRQAPGKGLEWVAVIWYDGSNKYYADSVKGRFTISRDNSKNTLYLQMNSLRAEDTAVYYCARDGGYSGYDSGFDYWGQGTLVTVSS
VL: DIVMTQSPLSLPVTPGEPASISCKSGQSLLNSNGYNYLDWYLQKPGQSPQFLIYLGSYRASGVPDRFSGSGSGTDFTLRISRVEAEDVGVYYCIQTLQTPFTFGPGTKVDIK
notes: Rest as Ab4 (IgG1)
B14: no binding [8].

B15: Ab7 (antibody, human IgG1, lambda, V domains shown)
VH: QVQLVESGGGVVQPGRSLRLSCAASGFTFSTYGMHWVRQAPGKGLEWVAVIWYDGSNKYYGDSVKGRFTISRDNSKNTLYLQMNSLRAEDTAVYYCARDNSHYYYGMDVWGQGTTVTVSS
VL: QSVLTQPPSVSGAPGQRVTISCTGSSSNIGAGYDVNWYQQFPGTAPKLLIYVNNNRPSGVPDRFSGSTSGTSASLAITGLQAEDEADYYCQSYDTSLSASVFGGGTRLTVLG
notes: as for B1
B15 gave an EC50 (cynomolgus monkey CD27L) of 430 pM, an EC50 [1] of 180 pM and a Kd [2] of 710 pM.
